Results taken from article doi:10.1101/2025.03.04.641466.

Tests used:
[1] = biological target: EGFP-vinculin (UniProt P18206); assay: FRET or BRET
[2] = biological target: mTFP1-vinculin (UniProt P18206); assay: FRET or BRET

| Substance | FRET efficiency [1] | FRET efficiency [2] [%] |
| --- | --- | --- |
| RIAM-mScarlet (RIAM C-terminally tagged with mScarlet-I) (from UniProt Q7Z5R6 1-666) (natural protein) | 13.5 |  |
| mScarlet-RIAM (RIAM N-terminally tagged with mScarlet-I) (from UniProt Q7Z5R6 1-666) (natural protein) | 16.4 | 20 |
